Article PMC6609509 (Molecular psychiatry, 2019)

Biological target: full-length recombinant ABI1 (UniProt Q8IZP0-5 1-476)
Test: SPR

- fold increase in KD against wild-type fragment 4: ~4 fold
B1: Shank3 fragment 4 (aa 668–858), S685I (domain or fragment, mouse, UniProt Q4ACU6 668-858, looked up)
chain: EEDGARRRAPPPPKRAPITTLTLRSKSMTAELEELASIRRRKGEKLDEILAVAAEPTLRPDIADADSRAATVKQRPTSRRITPAEISSLFERQGLPGPEKLPGSLRKGIPRTKSVGEDEKLASLLEGRFPRSTSMQDTVREGRGIPPPPQTAPPPPPAPYYFDSGPPPTFSPPPPPGRAYDTVRSSFKPGL
